Measurements reported in patent US20250136696A1 (HARBOUR BIOMED SHANGHAI, published 2025).

T1: Human B7-DC/PD-L2/CD273 protein, recombinant (Fc tag) (Sino Biological, H10292-H02H) (human, UniProt Q9BQ51 20-219)
T1 construct: Bought
T1 sequence (looked up): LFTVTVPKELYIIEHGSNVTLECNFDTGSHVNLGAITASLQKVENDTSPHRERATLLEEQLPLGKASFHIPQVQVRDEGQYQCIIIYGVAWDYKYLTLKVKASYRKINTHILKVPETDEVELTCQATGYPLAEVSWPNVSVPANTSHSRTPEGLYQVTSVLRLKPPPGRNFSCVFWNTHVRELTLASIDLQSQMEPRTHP

T2: human B7-H7 on the cell surface (human, UniProt Q9UM44 23-414)
T2 construct: whole, on cells; also called hB7-H7; hu B7-H7
T2 sequence (looked up): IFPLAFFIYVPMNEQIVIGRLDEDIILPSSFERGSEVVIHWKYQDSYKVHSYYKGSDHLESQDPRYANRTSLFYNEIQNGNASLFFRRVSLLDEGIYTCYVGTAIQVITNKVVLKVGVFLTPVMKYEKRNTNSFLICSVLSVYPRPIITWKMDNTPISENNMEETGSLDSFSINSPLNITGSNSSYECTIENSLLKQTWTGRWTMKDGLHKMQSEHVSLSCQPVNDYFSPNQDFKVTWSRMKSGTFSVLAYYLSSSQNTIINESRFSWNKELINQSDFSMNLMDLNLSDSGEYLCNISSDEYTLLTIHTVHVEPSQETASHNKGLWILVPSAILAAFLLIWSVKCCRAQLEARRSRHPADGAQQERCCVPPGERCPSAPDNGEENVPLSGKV


Columns and labels:
[1] = molecular target: T1, Human B7-DC/PD-L2/CD273 protein, …; assay: ELISA on coated B7 family protein
Experimental: (§1) B7 family proteins (see Table 7 for details) were respectively diluted to […] with PBS, added into a 96-well plate (Corning, #9018) at 100 μl/well, and incubated at 4° C. overnight. After the liquid was discarded, the plate was washed 3 times with a PBST buffer (pH 7.4, containing 0.05% tween-20), 250 μl of blocking solution containing 2% BSA was added, and the plate was incubated for 1 hour at 37° C. The blocking solution was discarded, the plate was washed 3 times with PBST buffer (pH 7.4, containing 0.05% Tween-20), the antigen-binding protein to be tested was diluted to 2 concentrations of 10 nM and 1 nM, 100 μl of the diluted antigen-binding protein was added to each well, and the plate was incubated for 1 hour at 37° C., with the isotype antibody as the control. After the plate was washed 3 times with PBST buffer (pH 7.4, containing 0.05% Tween-20), goat anti-human HRP secondary antibody (Invitrogen, #A18805) diluted 5000 times was added, and the plate was incubated at 37° C. for 1 hour in the dark. After the plate was washed 3 times with PBST buffer (pH 7.4, containing 0.05% tween-20), TMB (Biopanda, #TMB-S-003) was added at 100 μl/well, and the plate was placed at room temperature for about 30 minutes in the dark; and a stop solution (BBI life sciences, #E661006-0200) was added to each well at 50 μl/well to stop the reaction, and the absorbance at 450 nm (OD450) was determined in a microplate reader (PerkinElemer, #Enspire).

[2] = molecular target: T3, Human PD-L1/B7-H1 protein, His tag (Acro, PD1-H5229) (human, UniProt Q9NZQ7 19-238); assay: ELISA on coated B7 family protein
T3 construct: Bought
Experimental: as §1

[3] = molecular target: T2, human B7-H7 on the cell surface; assay: flow cytometry, LS180 cells
Experimental: This example was intended to study the in vitro activity of H2L2 monoclonal antibodies against human B7-H7 in binding to human/cynomolgus monkey B7-H7. Since homologous molecules of B7-H7 were not present in mice, the detection was not performed. […] The cells were adjusted to a cell density of 1×10⁶ cells/mL, respectively. The cells were seeded in a 96-well V-bottom plate (Corning, #3894) at 100 μL/well, and the antibody to be tested at 2× final concentration with 3-fold concentration gradient dilution was then added at 100 μL/well. The cells were incubated at 4° C. for 2 hours in the dark. After the incubation, the cells were rinsed twice by adding pre-chilled PBS containing 2% BSA at 100 μl/well, and centrifuged at 500 g at 4° C. for 5 minutes, and the supernatant was discarded. […] The cells were washed twice by adding pre-chilled PBS containing 2% BSA at 100 μL/well, and centrifuged at 500 g at 4° C. for 5 minutes, and the supernatant was discarded. Finally, the cells were resuspended in pre-chilled PBS containing 2% BSA at 200 μL/well, and the fluorescence signal values were read using an ACEA Novocyte3000 flow cytometer.

[4] = molecular target: T2, human B7-H7 on the cell surface; assay: flow cytometry on HEK-293/hB7-H7 cells after 0-14 days in 90% human serum at 37 C
Experimental: The cells were adjusted to a cell density of 1×10⁶ cells/mL, respectively. The cells were seeded in a 96-well V-bottom plate (Corning, #3894) at 100 μL/well, and the antibody to be tested at 2× final concentration with 3-fold concentration gradient dilution was then added at 100 μL/well. The cells were incubated at 4° C. for 2 hours in the dark. After the incubation, the cells were rinsed twice by adding pre-chilled PBS containing 2% BSA at 100 μL/well, and centrifuged at 500 g at 4° C. for 5 minutes, and the supernatant was discarded. […] The cells were washed twice by adding pre-chilled PBS containing 2% BSA at 100 μL/well, and centrifuged at 500 g at 4° C. for 5 minutes, and the supernatant was discarded. Finally, the cells were resuspended in pre-chilled PBS containing 2% BSA at 200 μL/well, and the fluorescence signal values were read using an ACEA Novocyte3000 flow cytometer.

T3 sequence (Q9NZQ7 19-238 limits assumed): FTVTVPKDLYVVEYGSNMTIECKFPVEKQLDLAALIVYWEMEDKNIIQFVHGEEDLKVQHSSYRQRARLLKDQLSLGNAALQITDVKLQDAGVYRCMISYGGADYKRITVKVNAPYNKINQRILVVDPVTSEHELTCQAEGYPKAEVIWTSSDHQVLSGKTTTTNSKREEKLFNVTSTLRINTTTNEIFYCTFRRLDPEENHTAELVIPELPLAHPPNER

binding result [1] | binding result [2] | EC50 [3] | Maximum MFI [3] | EC50 (read off the curve) [4] | Binder
no binding (tested: 10 nM) | no binding (tested: 10 nM) |  |  |  | PR004260 (antibody, human IgG1, kappa, L234A L235A, Variant of PR003181; Human IgG1 with LALA mutation in Fc) heavy: not shown light: DIVMSQSPSSLAVSAGEKVTMSCKSSQSLLNSRTRKNQLAWYQQKPGQSPKLLIYWASTRESGVPDRFTGSGSGTDFTLTISSVQAEDLAVYYCKQSYNLRTFGGGTKLEIKRTVAAPSVFIFPPSDEQLKSGTASVVCLLNNFYPREAKVQWKVDNALQSGNSQESVTEQDSKDSTYSLSSTLTLSKADYEKHKVYACEVTHQGLSSPVTKSFNRGEC
 |  | 2.2 nM | 21800 MFI |  | PR003264 (antibody, human IgG1, kappa, Human IgG1; also called 77G10D3) heavy: not shown light: DIQLTQSPSFLSASVGDRVTITCRASQGISSYFAWYQQKPGKAPKLLIYAASTLQSGVPSRFSGSGSGTEFTLTISSLQPEDFATYYCQHLNRYPWTFGQGTKVEIKRTVAAPSVFIFPPSDEQLKSGTASVVCLLNNFYPREAKVQWKVDNALQSGNSQESVTEQDSKDSTYSLSSTLTLSKADYEKHKVYACEVTHQGLSSPVTKSFNRGEC
no binding (tested: 10 nM) | no binding (tested: 10 nM) | 3.08 nM | 24000 MFI | ~1 nM | PR004263 (antibody, human IgG1, kappa, L234A L235A, Variant of PR003264; Human IgG1 with LALA mutation in Fc) heavy: not shown light: DIQLTQSPSFLSASVGDRVTITCRASQGISSYFAWYQQKPGKAPKLLIYAASTLQSGVPSRFSGSGSGTEFTLTISSLQPEDFATYYCQHLNRYPWTFGQGTKVEIKRTVAAPSVFIFPPSDEQLKSGTASVVCLLNNFYPREAKVQWKVDNALQSGNSQESVTEQDSKDSTYSLSSTLTLSKADYEKHKVYACEVTHQGLSSPVTKSFNRGEC
